Assay results reported in US11814663B2, “Microorganisms with improved 1,3-propanediol and butyric acid production” (METABOLIC EXPLORER, priority 2018, dated 2023).
Residue numbers refer to the chain shown, from its start. Numbers in names are those of the source.

Assays:
Type in all cases: biochemical, Clostridium acetobutylicum ATCC824
[1] = target: T1, Clostridium acetobutylicum glycerol kinase GlpK wt (glpK, CA_C1321, Uniprot Q97JG4), SEQ ID NO: 1 (Clostridium acetobutylicum, UniProt Q97JG4); assay: Glycerol kinase activity towards glycerol (ADP appearance coupled to NADH oxidation), wild type; conditions: pH 9, 30° C., 2 mM ATP, 0.01-50 mM glycerol
T1 construct: GlpK wt; Q97JG4; made in house; host or cells: E. coli BL21(DE3) star
T1 sequence (Q97JG4 1-498): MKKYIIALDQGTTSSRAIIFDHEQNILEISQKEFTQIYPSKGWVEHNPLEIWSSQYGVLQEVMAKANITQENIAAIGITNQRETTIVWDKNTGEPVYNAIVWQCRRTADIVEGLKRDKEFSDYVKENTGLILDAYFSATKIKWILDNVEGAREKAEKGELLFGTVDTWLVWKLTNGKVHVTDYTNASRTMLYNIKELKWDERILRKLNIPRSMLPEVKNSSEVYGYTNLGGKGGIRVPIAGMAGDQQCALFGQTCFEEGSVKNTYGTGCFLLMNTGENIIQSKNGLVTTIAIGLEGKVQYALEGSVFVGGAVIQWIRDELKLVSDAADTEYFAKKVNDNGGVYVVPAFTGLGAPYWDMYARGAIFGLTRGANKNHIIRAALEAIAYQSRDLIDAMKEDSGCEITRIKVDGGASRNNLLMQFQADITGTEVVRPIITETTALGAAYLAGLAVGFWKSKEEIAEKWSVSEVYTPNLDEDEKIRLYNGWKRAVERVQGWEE
Source text: (§1) Three different point mutations were identified in glpK gene in the clone PD0557Vc05 leading to the mutant protein GlpK* with H22Y, A347T and V466M (table 2 above). In order to better characterize the effect of the mutations, we tested them individually or in combination. Therefore, the alleles coding for the mutated glycerol kinase were cloned into the expression plasmid pPAL7 (Biorad®) and the plasmids obtained were transformed into E. coli strain BL21(DE3) star to purify each mutated protein and perform biochemical experiments. […]
(§2) The proteins were purified from the crude cell-extract by affinity on a Profinity column (BIORAD, Bio-Scale Mini Profinity exact cartridge 5 ml) according to the protocol recommended by the manufacturer. […] Protein concentration was measured using the Bradford protein assay.
(§3) Determination of kinetic parameters of GlpK wild type and mutants Glycerol kinase activity (GLPK) that catalyses the following reaction: Glycerol+ATP=>Glycerol-3-Phosphate+ADP, was determined by measuring the ADP appearance by enzymatic coupling to NADH oxidation. […] The oxidation of NADH was monitored at 30° C. by absorbance at 340 nm on a spectrophotometer (λ340=6290 M^−1 cm^−1).
(§4) One unit of enzyme activity was defined as the amount of enzyme catalyzing the decrease of 1 μmol of NADH per min. Kinetic parameters were determined with Sigmaplot by fitting to the Michaelis-Menten equation.

[2] = target: T2, Clostridium acetobutylicum glycerol kinase GlpK variant GlpK*(H22Y/A347T/V466M), SEQ ID NO: 13 (Clostridium acetobutylicum, UniProt Q97JG4, A347T/H22Y/V466M); assay: Glycerol kinase activity towards glycerol (ADP appearance coupled to NADH oxidation), H22Y/A347T/V466M; conditions: pH 9, 30° C., 2 mM ATP, 0.01-50 mM glycerol
T2 construct: made in house; host or cells: E. coli BL21(DE3) star
T2 sequence (Q97JG4 1-498 H22Y/A347T/V466M): T1 sequence (Q97JG4 1-498) with H22Y, A347T, V466M
Source text: as §1, §2, §3, §4

[3] = substrate: OCC(O)CO; assay: Glycerol kinase activity towards glycerol (ADP appearance coupled to NADH oxidation), wild type; conditions: other: GlpK wt, pH 9, 30° C., 2 mM ATP, 0.01-50 mM glycerol
Source text: (§5) Three different point mutations were identified in glpK gene in the clone PD0557Vc05 leading to the mutant protein GlpK* with H22Y, A347T and V466M (table 2 above). In order to better characterize the effect of the mutations, we tested them individually or in combination. Therefore, the alleles coding for the mutated glycerol kinase were cloned into the expression plasmid pPAL7 (Biorad®) and the plasmids obtained were transformed into E. coli strain BL21(DE3) star to purify each mutated protein and perform biochemical experiments.
(§6) Cultures of the seven strains 1 to 7 for the overproduction of the proteins were realized in a 2 L Erlenmeyer flask, using LB broth (Bertani, 1951) that was supplemented with 5 g/L glucose and 100 mg/L of ampicillin. An overnight culture was used to inoculate a 500 mL culture to an OD600 nm of about 0.15. The culture was first kept on a shaker at 37° C. and 200 rpm until OD600 nm was about 0.5 and then the culture was moved on a second shaker at 25° C. and 200 rpm until OD600 nm was 0.6-0.8 (about one hour), before induction with 500 μM IPTG. The culture was kept at 25° C. and 200 rpm until OD600 nm was around 4, and then it was stopped. Cells were centrifuged at 7000 rpm, 5 minutes at 4° C., and then stored at −20° C. This protocol was the same for strains 1 to 7.
(§7) For each strain, about 250 mg of E. coli biomass was suspended in 40 ml of 100 mM potassium phosphate pH 7.6, and a protease inhibitor cocktail. The cells suspension (15 ml per conical tube) was sonicated on ice (Bandelin sonoplus, 70 w) in a 50 ml conical tube during 8 cycles of 30 sec with 30 sec intervals. After sonication, cells were incubated for 30 min at room temperature with 5 mM MgCl2 and 1 UI/ml of DNaseI. Cells debris were removed by centrifugation at 12000 g for 30 min at 4° C.
as §2, with “manufacturer. The crude extract was loaded on a 5 ml Profinity exact cartridge equilibrated with 100 mM potassium phosphate pH 7.6.” for “manufacturer.”
as §3, §4

[4] = substrate: OCC(O)CO; assay: Glycerol kinase activity towards glycerol (ADP appearance coupled to NADH oxidation), H22Y; conditions: other: GlpK* H22Y, pH 9, 30° C., 2 mM ATP, 0.01-50 mM glycerol
Source text: as §5, §6, §7
as §2, with “manufacturer. The crude extract was loaded on a 5 ml Profinity exact cartridge equilibrated with 100 mM potassium phosphate pH 7.6.” for “manufacturer.”
as §3, §4

[5] = substrate: OCC(O)CO; assay: Glycerol kinase activity towards glycerol (ADP appearance coupled to NADH oxidation), H22Y/A347T; conditions: other: GlpK* (H22Y/A347T), pH 9, 30° C., 2 mM ATP, 0.01-50 mM glycerol
Source text: as §5, §6, §7
as §2, with “manufacturer. The crude extract was loaded on a 5 ml Profinity exact cartridge equilibrated with 100 mM potassium phosphate pH 7.6.” for “manufacturer.”
as §3, §4

[6] = substrate: OCC(O)CO; assay: Glycerol kinase activity towards glycerol (ADP appearance coupled to NADH oxidation), A347T/V466M; conditions: other: GlpK* (A347T/V466M), pH 9, 30° C., 2 mM ATP, 0.01-50 mM glycerol
Source text: as §5, §6, §7
as §2, with “manufacturer. The crude extract was loaded on a 5 ml Profinity exact cartridge equilibrated with 100 mM potassium phosphate pH 7.6.” for “manufacturer.”
as §3, §4

[7] = substrate: OCC(O)CO; assay: Glycerol kinase activity towards glycerol (ADP appearance coupled to NADH oxidation), A347T; conditions: other: GlpK* A347T, pH 9, 30° C., 2 mM ATP, 0.01-50 mM glycerol
Source text: as §5, §6, §7
as §2, with “manufacturer. The crude extract was loaded on a 5 ml Profinity exact cartridge equilibrated with 100 mM potassium phosphate pH 7.6.” for “manufacturer.”
as §3, §4

[8] = substrate: OCC(O)CO; assay: Glycerol kinase activity towards glycerol (ADP appearance coupled to NADH oxidation), V466M; conditions: other: GlpK* V466M, pH 9, 30° C., 2 mM ATP, 0.01-50 mM glycerol
Source text: as §5, §6, §7
as §2, with “manufacturer. The crude extract was loaded on a 5 ml Profinity exact cartridge equilibrated with 100 mM potassium phosphate pH 7.6.” for “manufacturer.”
as §3, §4

[9] = substrate: OCC(O)CO; assay: Glycerol kinase activity towards glycerol (ADP appearance coupled to NADH oxidation), H22Y/A347T/V466M; conditions: other: GlpK* (H22Y/A347T/V466M), pH 9, 30° C., 2 mM ATP, 0.01-50 mM glycerol
Source text: as §5, §6, §7
as §2, with “manufacturer. The crude extract was loaded on a 5 ml Profinity exact cartridge equilibrated with 100 mM potassium phosphate pH 7.6.” for “manufacturer.”
as §3, §4

With `OCC(O)CO` [glycerol] the Kcat/km [1] was 1.52e+06 M⁻¹ s⁻¹ and the Kcat/km [2] was 33900 M⁻¹ s⁻¹.

B1: Clostridium acetobutylicum glycerol kinase GlpK wt (glpK, CA_C1321, Uniprot Q97JG4), SEQ ID NO: 1 (Clostridium acetobutylicum ATCC 824) (protein)
chain: T1 sequence (Q97JG4 1-498)
notes: GlpK wt; Q97JG4; made in house; host or cells: E. coli BL21(DE3) star
With B1 the Km [3] was 54 ± 1 µM, the Vmax [3] was 87734 ± 499 nmol/min/mg and the kcat [3] was 82.22 ± 0.467 s⁻¹. For the same molecule, the kcat/Km [3] was 1.52e+06 ± 53000 M⁻¹ s⁻¹.

B2: Clostridium acetobutylicum glycerol kinase GlpK variant GlpK*(H22Y), SEQ ID NO: 5 (Clostridium acetobutylicum ATCC 824; H22Y) (protein)
chain: T1 sequence (Q97JG4 1-498) with H22Y
notes: GlpK*(H22Y); made in house; host or cells: E. coli BL21(DE3) star
Molecule B2 has a Km [4] of 70 ± 4 µM, a Vmax [4] of 91725 ± 1186 nmol/min/mg and a kcat [4] of 85.97 ± 1.12 s⁻¹. The kcat/Km [4] was 1.229e+06 ± 93000 M⁻¹ s⁻¹.

B3: Clostridium acetobutylicum glycerol kinase GlpK variant GlpK*(H22Y/A347T), SEQ ID NO: 9 (Clostridium acetobutylicum ATCC 824; A347T/H22Y) (protein)
chain: T1 sequence (Q97JG4 1-498) with H22Y, A347T
notes: GlpK*(H22Y/); made in house; host or cells: E. coli BL21(DE3) star
Molecule B3 has a Km [5] of 620 ± 50 µM, a Vmax [5] of 9784 ± 195 nmol/min/mg and a kcat [5] of 9.08 ± 0.183 s⁻¹. The kcat/Km [5] was 14700 ± 1500 M⁻¹ s⁻¹.

B4: Clostridium acetobutylicum glycerol kinase GlpK variant GlpK*(A347T/V466M), SEQ ID NO: 11 (Clostridium acetobutylicum ATCC 824; A347T/V466M) (protein)
chain: T1 sequence (Q97JG4 1-498) with A347T, V466M
notes: GlpK*(A347T/); made in house; host or cells: E. coli BL21(DE3) star
Work on B4 yielded a Km [6] of 480 ± 48 µM, a Vmax [6] of 6267 ± 175 nmol/min/mg and a kcat [6] of 5.873 ± 0.163 s⁻¹. It also gave a kcat/Km [6] of 12310 ± 1600 M⁻¹ s⁻¹.

B5: Clostridium acetobutylicum glycerol kinase GlpK variant GlpK*(A347T), SEQ ID NO: 3 (Clostridium acetobutylicum ATCC 824; A347T) (protein)
chain: T1 sequence (Q97JG4 1-498) with A347T
notes: GlpK*(A347T); made in house; host or cells: E. coli BL21(DE3) star
Work on B5 yielded a Km [7] of 260 ± 31 µM, a Vmax [7] of 6977 ± 155 nmol/min/mg and a kcat [7] of 6.538 ± 0.145 s⁻¹. For the same molecule, the kcat/Km [7] was 24900 ± 3500 M⁻¹ s⁻¹.

B6: Clostridium acetobutylicum glycerol kinase GlpK variant GlpK*(V466M), SEQ ID NO: 7 (Clostridium acetobutylicum ATCC 824; V466M) (protein)
chain: T1 sequence (Q97JG4 1-498) with V466M
notes: GlpK*(V466M); made in house; host or cells: E. coli BL21(DE3) star
B6 was tested, and the Km [8] was 58 ± 3 µM, the Vmax [8] was 60399 ± 537 nmol/min/mg and the kcat [8] was 56.6 ± 0.5 s⁻¹. It also gave a kcat/Km [8] of 973000 ± 52000 M⁻¹ s⁻¹.

B7: Clostridium acetobutylicum glycerol kinase GlpK variant GlpK*(H22Y/A347T/V466M), SEQ ID NO: 13 (Clostridium acetobutylicum ATCC 824; A347T/H22Y/V466M) (protein)
chain: T1 sequence (Q97JG4 1-498) with H22Y, A347T, V466M
notes: as for B3
Work on B7 yielded a Km [9] of 39 ± 2 µM, a Vmax [9] of 1404 ± 13 nmol/min/mg and a kcat [9] of 1.32 ± 0.012 s⁻¹. It also gave a kcat/Km [9] of 33900 ± 2300 M⁻¹ s⁻¹.
